Test [1] deals with wild-type human CD9 LEL (human) (UniProt P21926). The experiment in a line: yeast display flow cytometry; MEM-61 10 µg/ml + goat anti-mouse (Fab′)2-Alexa Fluor 555; induction at 20 °C; secondary only 1.14. In general terms: Flow cytometry measures light scatter and fluorescence of single cells or particles in a stream.
Test [2] has the same target. Description: yeast display flow cytometry; MEM-61 10 µg/ml + goat anti-mouse (Fab′)2-Alexa Fluor 555; induction at 37 °C; secondary only 4.21.
In test [3] the target is wild-type human CD81 LEL (human) (UniProt P60033). Description: ELISA; M38 coated at 5 µg/mL, CD81 LEL variant at 0.006859 µg/ml, anti-his-HRP. In general terms: An ELISA detects its analyte on a solid surface through an enzyme-linked reagent.
Sequence of wild-type human CD81 LEL (human) (P60033 113-201 limits assumed): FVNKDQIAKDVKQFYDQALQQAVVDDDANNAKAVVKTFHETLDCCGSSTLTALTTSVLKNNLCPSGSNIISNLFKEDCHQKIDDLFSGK
In test [4] the target is hCD81 LEL mutant C4C9 (Ala134Cys/Lys144Cys and Val135Cys/Ser168Cys) (human) (UniProt P60033). The description is as above.
Sequence of hCD81 LEL mutant C4C9 (Ala134Cys/Lys144Cys and Val135Cys/Ser168Cys) (human) (P60033 114-202 A134C/V135C/K144C/S168C): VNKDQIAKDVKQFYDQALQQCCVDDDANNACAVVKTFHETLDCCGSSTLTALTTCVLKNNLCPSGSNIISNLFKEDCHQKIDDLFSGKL
Test [5] has as its target wild-type human CD81 LEL (human) (UniProt P60033). The experiment in a line: ELISA; M38 coated at 5 µg/mL, CD81 LEL variant at 1.666667 µg/ml, anti-his-HRP.
Test [6] addresses hCD81 LEL mutant C4C9 (Ala134Cys/Lys144Cys and Val135Cys/Ser168Cys) (human) (UniProt P60033). The description is as above.
In test [7] the target is wild-type human CD81 LEL (human) (UniProt P60033). The experiment in a line: HEK293-6E cell display flow cytometry; M38 10 µg/ml + anti-mouse F(ab)2-Alexa Fluor 555; secondary only 8.52.
The target is the same in test [8]. The experiment in a line: ELISA; M38 coated at 5 µg/mL, CD81 LEL variant at 5 µg/ml, anti-his-HRP.
The target in test [9] is hCD81 LEL mutant C4C9 (Ala134Cys/Lys144Cys and Val135Cys/Ser168Cys) (human) (UniProt P60033). The test is described as above.
The target of test [10] is wild-type human CD81 LEL (human) (UniProt P60033). Description: ELISA; M38 coated at 5 µg/mL, CD81 LEL variant at 0.002286 µg/ml, anti-his-HRP.
The target of test [11] is hCD81 LEL mutant C4C9 (Ala134Cys/Lys144Cys and Val135Cys/Ser168Cys) (human) (UniProt P60033). The description is as above.
In test [12] the target is wild-type human CD81 LEL (human) (UniProt P60033). The experiment in a line: ELISA; M38 coated at 5 µg/mL, CD81 LEL variant at 0.061728 µg/ml, anti-his-HRP.
The target in test [13] is hCD81 LEL mutant C4C9 (Ala134Cys/Lys144Cys and Val135Cys/Ser168Cys) (human) (UniProt P60033). The test is described as above.
For test [14], the target named is wild-type human CD81 LEL (human) (UniProt P60033). Description: ELISA; M38 coated at 5 µg/mL, CD81 LEL variant at 0.020576 µg/ml, anti-his-HRP.
Test [15] has as its target hCD81 LEL mutant C4C9 (Ala134Cys/Lys144Cys and Val135Cys/Ser168Cys) (human) (UniProt P60033). The description is as above.
Test [16] concerns the target wild-type human CD81 LEL (human) (UniProt P60033). The experiment in a line: ELISA; M38 coated at 5 µg/mL, CD81 LEL variant at 0.185185 µg/ml, anti-his-HRP.
The target of test [17] is hCD81 LEL mutant C4C9 (Ala134Cys/Lys144Cys and Val135Cys/Ser168Cys) (human) (UniProt P60033). The description is as above.
Test [18] addresses wild-type human CD81 LEL (human) (UniProt P60033). Description: ELISA; M38 coated at 5 µg/mL, CD81 LEL variant at 0.555556 µg/ml, anti-his-HRP.
The target of test [19] is hCD81 LEL mutant C4C9 (Ala134Cys/Lys144Cys and Val135Cys/Ser168Cys) (human) (UniProt P60033). The test is described as above.
Test [20] concerns the target streptavidin-Alexafluor 647 (UniProt P22629). Description: yeast display flow cytometry; secondary reagent only.

Sequence of wild-type human CD9 LEL (human) (P21926 113-192 limits assumed): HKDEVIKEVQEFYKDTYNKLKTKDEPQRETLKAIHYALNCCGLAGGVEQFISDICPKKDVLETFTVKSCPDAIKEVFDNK
Sequence of streptavidin-Alexafluor 647 (P22629 37-163 limits assumed): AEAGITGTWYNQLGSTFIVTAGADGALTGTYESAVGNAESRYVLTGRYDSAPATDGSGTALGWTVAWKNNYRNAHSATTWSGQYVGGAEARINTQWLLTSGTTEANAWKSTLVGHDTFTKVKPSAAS

Take anti-CD9 specific antibody MEM-61: the percentage of positive yeast cells came out at 46.4% in [1] and 26.2% in test [2].

Turning to anti-hCD81 M38 antibody, the A 450/620 in test [3] stood at 0.616; in [4] it was 0.75; in test [5] it was 3.69; in test [6], 3.82; in test [8], 3.97; in [9], 3.83. The A 450/620 in [10] was 0.177; in test [11], 0.187; in [12], 3.53; in [13] it was 3.46; in test [14] it was 1.89; in [15], 1.98. The A 450/620 in [16] was 3.68; in test [17] it was 3.69; in [18] it was 3.63; in test [19] it was 3.73. Also, in [7], the MFI came out at 83.8.

Substance “wild-type human CD81 LEL (from UniProt P60033 113-201)” displayed a median fluorescence in test [20] of 28.3.

The values are drawn from patent US20210395725A1.
